The subject of assay [1] is corn protoplasts. The assay can be described thus: Calcium burst in transiently transfected corn protoplasts, R-GECO1.2 fluorescence reporter. The format is cell-based, Zea mays. The conditions noted are these: Example 3, FIG. 4; 1 μM PpNLP20; 40 minutes; 384-well. The source says:
Following ligand (also known as elicitor) binding, PRRs are activated and induce a transient increase of cytosolic Ca^2+ concentration as part of a PTI response. […] In a high-throughput method, the kinetics of PRR-dependent transient variation of cytosolic Ca^2+ concentration can be measured with a fluorimeter or luminometer and in microplate formats of 96 or 384 wells.
Fluorescence was monitored using a fluorimeter equipped with a 100 Hz xenon flash lamp with excitation at 556 nm and emission measured at 585 nm for 100 ms, every 22.6 seconds for 42 minutes.
All of the AtRLP23 constructs have an operably linked 2×35S+Ω promoter construct (SEQ ID NO: 72) and an operably linked rbcS terminator (SEQ ID NO: 73)
Fluorescence was monitored using a fluorimeter equipped with a 100 Hz xenon flash lamp with excitation at 556 nm and emission measured at 585 nm for 30 ms, every 20.2 seconds for 40 minutes. For each fluorescence measurement, the transient change in R-GECO1.2 fluorescence (ΔF) are calculated from background corrected intensity values as (F-Fo), where F represents the average fluorescence intensity of the a batch of protoplasts treated with elicitor, and Fo represents the average fluorescence intensity of the same batch of protoplasts treated with a control solution that lacks the elicitor but is otherwise identical or essentially identical in composition to the solution comprising the elicitor.

For assay [2], the system named is corn protoplasts. The assay can be described thus: Calcium burst in transiently transfected corn protoplasts, apoaequorin luminescence reporter.

B1: AtRLP23-AtEFR-3×FLAG: AtRLP23 apoplastic and eJM domains, AtEFR TM and cytoplasmic domains, 3×FLAG; SEQ ID NO: 17, 18 (protein)
chain: MSKALLHLHFLSLFLLCCVCHSSIFTLNFHFTGIVACRPHQIQAFTKFTNEFDTRGCNNSDTFNGVWCDNSTGAVAVLQLRKCLSGTLKSNSSLFGFHQLRYVDLQNNNLTSSSLPSGFGNLKRLEGLFLSSNGFLGQVPSSFSNLTMLAQLDLSYNKLTGSFPLVRGLRKLIVLDLSYNHFSGTLNPNSSLFELHQLRYLNLAFNNFSSSLPSKFGNLHRLENLILSSNGFSGQVPSTISNLTRLTKLYLDQNKLTSSFPLVQNLTNLYELDLSYNKFFGVIPSSLLTLPFLAHLALRENNLAGSVEVSNSSTSSRLEIMYLGSNHFEGQILEPISKLINLKHLDLSFLNTSYPIDLKLFSSLKSLRSLDLSGNSISSASLSSDSYIPLTLEMLTLRHCDINEFPNILKTLKELVYIDISNNRMKGKIPEWLWSLPLLQSVTLGNNYFTGFQGSAEILVNSSVLLLYLDSNNFEGALPDLPLSIKGFGVASNSFTSEIPLSICNRSSLAAIDLSYNNFTGPIPPCLRNLELVYLRNNNLEGSIPDALCDGASLRTLDVSHNRLTGKLPRSFVNCSSLKFLSVINNRIEDTFPFWLKALPNLQVLTLRSNRFYGPISPPHQGPLGFPELRIFEISDNKFTGSLPPNYFVNWKASSRTMNQDGGLYMVYEEKLFDEGGYGYTDALDLQYKGLHMEQAKALTSYAAIDFSGNRLEGQIPESIGLLKALIAVNISNNAFTGHIPLSMANLENLESLDMSRNQLSGTIPNGLGSISFLAYINVSHNQLTGEIPQGTQITGQSKSSFEGNAGLCGLPLKESCFGTGAPPMYHQKQEDKEEEEEEEEEEEEVLNGRVVSGICIGIASLLLIIIVASLCWFMKRKKKNNASDGNPSDSTTLGMFHEKVSYEELHSATSRFSSTNLIGSGNFGNVFKGLLGPENKLVAVKVLNLLKHGATKSFMAECETFKGIRHRNLVKLITVCSSLDSEGNDFRALVYEFMPKGSLDMWLQLEDLERVNDHSRSLTPAEKLNIAIDVASALEYLHVHCHDPVAHCDIKPSNILLDDDLTAHVSDFGLAQLLYKYDRESFLNQFSSAGVRGTIGYAAPEYGMGGQPSIQGDVYSFGILLLEMFSGKKPTDESFAGDYNLHSYTKSILSGCTSSGGSNAIDEGLRLVLQVGIKCSEEYPRDRMRTDEAVRELISIRSKFFSSKTTITESPRDAPQSSPQEWMLNTDMHTMASDYKDHDGDYKDHDLDAAAADYKDDDDK
modifications: Fusion protein
For B1, the “responsiveness to PpNLP20 treatment compared to AtRLP23-3×FLAG (total transient increase of fluorescence)” value in the assay on corn protoplasts [1] was “increased responsiveness”.

B2: AtRLP23+TM-AtSOBIR1-3×FLAG: AtRLP23 apoplastic, eJM and TM domains, AtSOBIR1 cytoplasmic domain, 3×FLAG; SEQ ID NO: 41, 42 (protein)
chain: MSKALLHLHFLSLFLLCCVCHSSIFTLNFHFTGIVACRPHQIQAFTKFTNEFDTRGCNNSDTFNGVWCDNSTGAVAVLQLRKCLSGTLKSNSSLFGFHQLRYVDLQNNNLTSSSLPSGFGNLKRLEGLFLSSNGFLGQVPSSFSNLTMLAQLDLSYNKLTGSFPLVRGLRKLIVLDLSYNHFSGTLNPNSSLFELHQLRYLNLAFNNFSSSLPSKFGNLHRLENLILSSNGFSGQVPSTISNLTRLTKLYLDQNKLTSSFPLVQNLTNLYELDLSYNKFFGVIPSSLLTLPFLAHLALRENNLAGSVEVSNSSTSSRLEIMYLGSNHFEGQILEPISKLINLKHLDLSFLNTSYPIDLKLFSSLKSLRSLDLSGNSISSASLSSDSYIPLTLEMLTLRHCDINEFPNILKTLKELVYIDISNNRMKGKIPEWLWSLPLLQSVTLGNNYFTGFQGSAEILVNSSVLLLYLDSNNFEGALPDLPLSIKGFGVASNSFTSEIPLSICNRSSLAAIDLSYNNFTGPIPPCLRNLELVYLRNNNLEGSIPDALCDGASLRTLDVSHNRLTGKLPRSFVNCSSLKFLSVINNRIEDTFPFWLKALPNLQVLTLRSNRFYGPISPPHQGPLGFPELRIFEISDNKFTGSLPPNYFVNWKASSRTMNQDGGLYMVYEEKLFDEGGYGYTDALDLQYKGLHMEQAKALTSYAAIDFSGNRLEGQIPESIGLLKALIAVNISNNAFTGHIPLSMANLENLESLDMSRNQLSGTIPNGLGSISFLAYINVSHNQLTGEIPQGTQITGQSKSSFEGNAGLCGLPLKESCFGTGAPPMYHQKQEDKEEEEEEEEEEEEVLNGRAVAIGYGSGLLLGLAIAQVIASYKLIIQAIRGSEKPPGPSIFSPLIKKAEDLAFLENEEALASLEIIGRGGCGEVFKAELPGSNGKIIAVKKVIQPPKDADELTDEDSKFLNKKMRQIRSEINTVGHIRHRNLLPLLAHVSRPECHYLVYEYMEKGSLQDILTDVQAGNQELMWPARHKIALGIAAGLEYLHMDHNPRIIHRDLKPANVLLDDDMEARISDFGLAKAMPDAVTHITTSHVAGTVGYIAPEFYQTHKFTDKCDIYSFGVILGILVIGKLPSDEFFQHTDEMSLIKWMRNIITSENPSLAIDPKLMDQGFDEQMLLVLKIACYCTLDDPKQRPNSKDVRTMLSQIKHSDYKDHDGDYKDHDLDAAAADYKDDDDK
modifications: Fusion protein
As for B2, in the assay with corn protoplasts [1], the “responsiveness to PpNLP20 treatment compared to AtRLP23-3×FLAG (total transient increase of fluorescence)” value is recorded as “increased responsiveness”.

B3: AtRLP23-AtPEPR1-3×FLAG: AtRLP23 apoplastic and eJM domains, AtPEPR1 TM and kinase domains, 3×FLAG; SEQ ID NO: 572, 573 (protein)
chain: MSKALLHLHFLSLFLLCCVCHSSIFTLNFHFTGIVACRPHQIQAFTKFTNEFDTRGCNNSDTFNGVWCDNSTGAVAVLQLRKCLSGTLKSNSSLFGFHQLRYVDLQNNNLTSSSLPSGFGNLKRLEGLFLSSNGFLGQVPSSFSNLTMLAQLDLSYNKLTGSFPLVRGLRKLIVLDLSYNHFSGTLNPNSSLFELHQLRYLNLAFNNFSSSLPSKFGNLHRLENLILSSNGFSGQVPSTISNLTRLTKLYLDQNKLTSSFPLVQNLTNLYELDLSYNKFFGVIPSSLLTLPFLAHLALRENNLAGSVEVSNSSTSSRLEIMYLGSNHFEGQILEPISKLINLKHLDLSFLNTSYPIDLKLFSSLKSLRSLDLSGNSISSASLSSDSYIPLTLEMLTLRHCDINEFPNILKTLKELVYIDISNNRMKGKIPEWLWSLPLLQSVTLGNNYFTGFQGSAEILVNSSVLLLYLDSNNFEGALPDLPLSIKGFGVASNSFTSEIPLSICNRSSLAAIDLSYNNFTGPIPPCLRNLELVYLRNNNLEGSIPDALCDGASLRTLDVSHNRLTGKLPRSFVNCSSLKFLSVINNRIEDTFPFWLKALPNLQVLTLRSNRFYGPISPPHQGPLGFPELRIFEISDNKFTGSLPPNYFVNWKASSRTMNQDGGLYMVYEEKLFDEGGYGYTDALDLQYKGLHMEQAKALTSYAAIDFSGNRLEGQIPESIGLLKALIAVNISNNAFTGHIPLSMANLENLESLDMSRNQLSGTIPNGLGSISFLAYINVSHNQLTGEIPQGTQITGQSKSSFEGNAGLCGLPLKESCFGTGAPPMYHQKQEDKEEEEEEEEEEEEVLNGRIVLIAVLSSLLVLVVVLALVFICLRRRKGRPEKDAYVFTQEEGPSLLLNKVLAATDNLNEKYTIGRGAHGIVYRASLGSGKVYAVKRLVFASHIRANQSMMREIDTIGKVRHRNLIKLEGFWLRKDDGLMLYRYMPKGSLYDVLHGVSPKENVLDWSARYNVALGVAHGLAYLHYDCHPPIVHRDIKPENILMDSDLEPHIGDFGLARLLDDSTVSTATVTGTTGYIAPENAFKTVRGRESDVYSYGVVLLELVTRKRAVDKSFPESTDIVSWVRSALSSSNNNVEDMVTTIVDPILVDELLDSSLREQVMQVTELALSCTQQDPAMRPTMRDAVKLLEDVKHLARSCSSDSVRSDYKDHDGDYKDHDLDAAAADYKDDDDK
modifications: Fusion protein
For B3, the “Ca^2+ burst in response to all tested NLP peptides” value in the assay with corn protoplasts [2] (Example 6, FIG. 8, CgNLP24b, FgNLP24c, FvNLP24a, SmNLP24) is recorded as “Ca^2+ burst”. The “increase in Ca^2+ compared to control buffer treatment” value in the assay with corn protoplasts [2] (FIG. 8, all peptides tested) is “statistically significant”.

The values are drawn from patent US20220251595A1, “ENGINEERED ATRLP23 PATTERN RECOGNITION RECEPTORS AND METHODS OF USE” (priority 2019, published 2022).
